Among the data in publication PMC3432076 are binding values, retold here.

The data set concerns the target His-ΔPACC (Neurospora crassa) (UniProt Q7RVQ8). The data set is described as follows: EMSA. The note with it: EMSA: 25 mM HEPES-KOH pH 7.9, 20 mM KCl, 10% glycerol, 1 mM DTT, 0.2 mM EDTA, 0.5 mM PMSF, 12.5 mM benzamidine, 5 µg/mL antipain and pepstatin A, 2 µg …. On the technique in general: Mobility shift assays separate free from complexed probe on a gel.

His-ΔPACC (Neurospora crassa), sequence (Q7RVQ8 1-213, stated change not applied): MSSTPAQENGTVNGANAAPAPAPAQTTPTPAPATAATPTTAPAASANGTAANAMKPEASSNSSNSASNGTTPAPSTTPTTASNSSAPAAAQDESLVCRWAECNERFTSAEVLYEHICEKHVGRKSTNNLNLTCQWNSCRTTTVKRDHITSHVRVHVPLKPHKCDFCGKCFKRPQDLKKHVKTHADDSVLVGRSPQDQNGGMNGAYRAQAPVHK

Turning to “GACCCAACAGCCCAACTTGTGCTTGTCTTGTTCTTTTCCGGCCTCGCTAGAGGTACTATTTCTTCGCTTCTTGTCTGACTTTTTTCAATAGCCGTCTTTGGGCCAGAAATTACGTGAGATCGGGGCCGCATGGGAGTATTCGTTGC (double strand) [mpacC probe (CTTGGC to AAATTA)]”, the binding result is reported as “binds more weakly”. To “GACCCAACAGCCCAACTTGTGCTTGTCTTGTTCTTTTCCGGCCTCGCTAGAGGTACTATTTCTTCGCTTCTTGTCTGACTTTTTTCAATAGCCGTCTTTGGGCCAGCTTGGCCGTGAGATCGGGGCCGCATGGGAGTATTCGTTGC (double strand) [pacC probe (146 bp gsn promoter)]” belongs “binds”.
